Data from the Human Domainome abundance scans (Beltran et al. 2025).
± gives the uncertainty stated by the source.

B1: Dynamin-binding protein, residues 242 to 304; numbered along this chain, Q6XZF7 (parent)
chain: EEPGTYGVALYRFQALEPNELDFEVGDKIRILATLEDGWLEGSLKGRTGIFPYRFVKLCPDTR

Variants of: B1
Assay: abundance fitness (aPCA) (normalised: wild type 0, dead -1); higher = more abundant; growth selection in yeast, the domain comes from the species named
Conditions: Homo sapiens
In the case of T48R, the abundance fitness is reported as -0.105 ± 0.062. Work on T48F yielded an abundance fitness of -0.49 ± 0.067. With T48S the abundance fitness was -0.351 ± 0.058. Variant R54N has an abundance fitness of 0.238 ± 0.063. In the case of R54E, the abundance fitness is reported as -0.057 ± 0.13. For R54D, the abundance fitness was -0.052 ± 0.057. For R54W, the abundance fitness was -0.292 ± 0.12. For R54T, the abundance fitness was -0.24 ± 0.094. Variant R54G has an abundance fitness of -0.034 ± 0.046. R54V gave an abundance fitness of -0.07 ± 0.1. R54Y gave an abundance fitness of -0.286 ± 0.07. For L32C, the abundance fitness was -0.657 ± 0.098. Work on L32F yielded an abundance fitness of -0.652 ± 0.086. Variant L32M has an abundance fitness of -0.394 ± 0.17. Work on N19C yielded an abundance fitness of -0.518 ± 0.074. In the case of N19Y, the abundance fitness is reported as -0.299 ± 0.059. N19Q showed an abundance fitness of -0.188 ± 0.23. E17V showed an abundance fitness of -0.4 ± 0.063. E17F gave an abundance fitness of -0.513 ± 0.067. E17N showed an abundance fitness of 0.158 ± 0.054. In the case of E17Q, the abundance fitness is reported as 0.189 ± 0.14. Variant E17H has an abundance fitness of 0.229 ± 0.056. For E17L, the abundance fitness was -0.011 ± 0.05. Y53H showed an abundance fitness of -0.006 ± 0.082. For Y53T, the abundance fitness was 0.223 ± 0.065. Work on Y53W yielded an abundance fitness of 0.108 ± 0.25. Variant Y53F has an abundance fitness of -0.079 ± 0.067. For Y53P, the abundance fitness was 0.37 ± 0.1. Variant Y53V has an abundance fitness of 0.263 ± 0.052. Variant P3I has an abundance fitness of 0.273 ± 0.073. In the case of P3E, the abundance fitness is reported as -0.033 ± 0.35. P3L gave an abundance fitness of 0.108 ± 0.071. Variant T62D has an abundance fitness of 0.021 ± 0.051. With T62E the abundance fitness was -0.004 ± 0.17. In the case of T62V, the abundance fitness is reported as -0.04 ± 0.055. Work on T62I yielded an abundance fitness of -0.034 ± 0.055. Work on T62F yielded an abundance fitness of -0.137 ± 0.057. T62Y gave an abundance fitness of -0.127 ± 0.052. With T62R the abundance fitness was -0.046 ± 0.065. With A33T the abundance fitness was -0.009 ± 0.078. In the case of A33K, the abundance fitness is reported as 0.005 ± 0.12. For A33L, the abundance fitness was -0.644 ± 0.16. A33I gave an abundance fitness of -0.703 ± 0.13. Variant A33H has an abundance fitness of -0.021 ± 0.081. Work on L40G yielded an abundance fitness of -0.383 ± 0.059. L40V showed an abundance fitness of 0.092 ± 0.045. In the case of L40W, the abundance fitness is reported as -0.473 ± 0.13. Y11K showed an abundance fitness of 0.343 ± 0.11. With Y11H the abundance fitness was 0.022 ± 0.067. With Y11A the abundance fitness was 0.217 ± 0.061. For Y11D, the abundance fitness was -0.281 ± 0.067. In the case of Y11I, the abundance fitness is reported as -0.14 ± 0.055. With R30L the abundance fitness was -0.148 ± 0.089. With R30S the abundance fitness was -0.41 ± 0.062. R30T showed an abundance fitness of -0.644 ± 0.12. R30M gave an abundance fitness of -0.651 ± 0.23. R30Y gave an abundance fitness of -0.398 ± 0.085. Work on F51Y yielded an abundance fitness of -0.497 ± 0.066. For F51L, the abundance fitness was -0.492 ± 0.079. In the case of F51P, the abundance fitness is reported as -0.524 ± 0.14. Variant F51T has an abundance fitness of -0.681 ± 0.11. Work on I50T yielded an abundance fitness of -0.306 ± 0.082. With I50S the abundance fitness was -0.541 ± 0.066. I50M gave an abundance fitness of -0.298 ± 0.12. I50C showed an abundance fitness of -0.275 ± 0.055. With I50P the abundance fitness was -0.973 ± 0.27. For I50G, the abundance fitness was -0.823 ± 0.091. V8L gave an abundance fitness of -0.192 ± 0.069. V8E gave an abundance fitness of -0.206 ± 0.15. V8T showed an abundance fitness of -0.047 ± 0.076. For V8K, the abundance fitness was -0.427 ± 0.17. P18D gave an abundance fitness of -0.044 ± 0.059. Variant P18G has an abundance fitness of -0.492 ± 0.061. For P18Y, the abundance fitness was -0.473 ± 0.077. P18T showed an abundance fitness of -0.333 ± 0.094. For P18R, the abundance fitness was -0.04 ± 0.053. Work on P18V yielded an abundance fitness of -0.332 ± 0.062. With P18E the abundance fitness was -0.006 ± 0.13. With P18M the abundance fitness was -0.419 ± 0.19. P18N gave an abundance fitness of -0.275 ± 0.071. F13K gave an abundance fitness of -0.207 ± 0.15. F13S showed an abundance fitness of -0.534 ± 0.063. In the case of F13H, the abundance fitness is reported as 0.559 ± 0.059. Work on F13Q yielded an abundance fitness of -0.212 ± 0.2. I29L gave an abundance fitness of -0.573 ± 0.093. I29P showed an abundance fitness of -0.35 ± 0.11. I29A gave an abundance fitness of -0.702 ± 0.11. In the case of I29H, the abundance fitness is reported as -0.634 ± 0.11. With I29C the abundance fitness was -0.839 ± 0.11. In the case of P52V, the abundance fitness is reported as -0.816 ± 0.095. P52K gave an abundance fitness of -0.794 ± 0.33. P52W gave an abundance fitness of -0.583 ± 0.22. For P52G, the abundance fitness was -0.534 ± 0.054. In the case of P52D, the abundance fitness is reported as -0.817 ± 0.12. For K45M, the abundance fitness was -0.317 ± 0.15. Variant K45C has an abundance fitness of -0.429 ± 0.081. For K45I, the abundance fitness was -0.696 ± 0.095. Work on K45Q yielded an abundance fitness of -0.157 ± 0.15. K45Y showed an abundance fitness of -0.347 ± 0.1. K45L gave an abundance fitness of -0.502 ± 0.081. Work on K45P yielded an abundance fitness of -0.429 ± 0.13. For K45G, the abundance fitness was -0.113 ± 0.07. In the case of K45H, the abundance fitness is reported as 0.081 ± 0.076. Work on I31V yielded an abundance fitness of -0.463 ± 0.081. In the case of I31E, the abundance fitness is reported as -0.587 ± 0.27. With I31Y the abundance fitness was -0.91 ± 0.12. I31N gave an abundance fitness of -0.85 ± 0.15. I31M gave an abundance fitness of -0.755 ± 0.23. For I31F, the abundance fitness was -0.926 ± 0.12. L58T showed an abundance fitness of -0.301 ± 0.072. For L58A, the abundance fitness was -0.594 ± 0.082. L58S gave an abundance fitness of -0.64 ± 0.06. In the case of L58I, the abundance fitness is reported as -0.055 ± 0.056. In the case of L58P, the abundance fitness is reported as -0.379 ± 0.092. L58R gave an abundance fitness of -0.12 ± 0.056. For L58E, the abundance fitness was -0.708 ± 0.17. With L58Y the abundance fitness was -0.473 ± 0.06. L58Q showed an abundance fitness of -0.656 ± 0.23. C59N gave an abundance fitness of -0.393 ± 0.09. Work on C59E yielded an abundance fitness of -0.109 ± 0.11. Work on C59P yielded an abundance fitness of -0.546 ± 0.17. For C59Q, the abundance fitness was 0.117 ± 0.13. For C59F, the abundance fitness was 0.006 ± 0.053. Work on C59K yielded an abundance fitness of -0.086 ± 0.22. For L16M, the abundance fitness was 0.242 ± 0.12. With L16C the abundance fitness was 0.09 ± 0.054. With L16A the abundance fitness was 0.187 ± 0.064. Work on K28I yielded an abundance fitness of -0.278 ± 0.084. K28T gave an abundance fitness of -0.282 ± 0.08. For K28Q, the abundance fitness was -0.604 ± 0.2. Work on K28Y yielded an abundance fitness of -0.519 ± 0.12. Variant R12I has an abundance fitness of -0.737 ± 0.1. In the case of R12L, the abundance fitness is reported as -0.637 ± 0.093. With R12V the abundance fitness was -0.508 ± 0.075. For R12H, the abundance fitness was -0.446 ± 0.11. With R12C the abundance fitness was -0.477 ± 0.08. Variant R12P has an abundance fitness of -0.126 ± 0.1. For R12K, the abundance fitness was -0.276 ± 0.17. R12Q gave an abundance fitness of -0.821 ± 0.35. Variant R12T has an abundance fitness of -0.237 ± 0.085. R12Y gave an abundance fitness of -0.834 ± 0.12. In the case of A9R, the abundance fitness is reported as -0.816 ± 0.11. With A9I the abundance fitness was -0.737 ± 0.097. A9S showed an abundance fitness of -0.566 ± 0.067. In the case of A9K, the abundance fitness is reported as -0.824 ± 0.26. For A9W, the abundance fitness was -0.6 ± 0.22. Work on S43L yielded an abundance fitness of -0.368 ± 0.082. S43W showed an abundance fitness of -0.393 ± 0.27. In the case of S43C, the abundance fitness is reported as -0.245 ± 0.069. For S43P, the abundance fitness was -0.945 ± 0.21. Variant S43A has an abundance fitness of -0.106 ± 0.058. In the case of S43H, the abundance fitness is reported as -0.373 ± 0.089. G26P gave an abundance fitness of -1.07 ± 0.22. Work on G26Q yielded an abundance fitness of -0.061 ± 0.2. Work on G26V yielded an abundance fitness of -0.844 ± 0.086. Variant G26S has an abundance fitness of -0.674 ± 0.069. For G26R, the abundance fitness was -0.866 ± 0.099. Q14E gave an abundance fitness of -0.131 ± 0.13. Variant Q14G has an abundance fitness of -0.696 ± 0.077. Q14T gave an abundance fitness of -0.109 ± 0.063. In the case of Q14C, the abundance fitness is reported as -0.268 ± 0.067. Q14L showed an abundance fitness of -0.265 ± 0.07. F55W showed an abundance fitness of -0.374 ± 0.07. Variant F55Y has an abundance fitness of 0.079 ± 0.034. F55Q gave an abundance fitness of -0.774 ± 0.12. F55P gave an abundance fitness of -0.818 ± 0.074. F55C gave an abundance fitness of -0.075 ± 0.036.
